According to patent US20040161809:

Biological target: Staphylococcus aureus thioredoxin (Trx) (UniProt P0A0K6)
Sequence (P0A0K6 whole entry): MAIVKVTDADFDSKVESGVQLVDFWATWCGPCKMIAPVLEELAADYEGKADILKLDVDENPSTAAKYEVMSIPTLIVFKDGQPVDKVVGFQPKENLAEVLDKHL

Question: What does the source list for “Staphylococcus aureus thioredoxin reductase (TrxB)”?
Answer: A412 (DTNB titration of free SH groups formed in insulin), complete reaction: NADPH + Trx + TrxB + insulin: 0.816 A412; A412 (DTNB titration of free SH groups formed in insulin), control with NADPH omitted: Trx + TrxB + insulin: 0.15 A412; A412 (DTNB titration of free SH groups formed in insulin), control with Trx omitted: NADPH + TrxB + insulin: 0.493 A412
